# From the nanobody polyreactivity screen of Harvey et al. (2022)
# Assay: yeast display, Sf9 membrane polyspecificity reagent, FACS + sequencing; frameworks hold sequencing errors
# Method in brief: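 Galactose induction of a Saccharomyces cerevisiae BJ5465 synthetic nanobody display library ran 36–48 hours. The cells were then stained for 1 hour at 4 °C with 10% biotinylated, detergent-solubilized Sf9 membrane reagent, pulled down on streptavidin microbeads and FACS-sorted into low and high (top ~1%) gates on expression and reagent-binding fluorescence. Labels for polyreactivity follow the gate of origin.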
row,Sequence,polyreactivity (PSR sort gate)
1,QVQLVESGGGLVQAGGSLRLSCAASGRIFLRNDMVWYRQAPGKERELVAGISSDGSTYYADSVKGRFTISRDNAKNTVYLQMNSVKREDTAVYDCAAERWGKPTVFQFWRPYDYWGLGTQVTVSS,low polyreactivity
2,QVQLVESGGGLVQAGGSLRLSCAASGRIFLRYAMGGYRAAPGKERELVAAISTRGSSTYYADSVKGRFTNSRDNAKNTVYLQMNSLKPEDTAVYYCNKAWGPRRGVNVAFDYWGQGTQVTVSS,low polyreactivity
3,QVQLVESGGGLVQAGGSLRLSCAASGRIFLVNAKGWYRQAPGKERELVAAITYSGRSTYYAYSVKGRFTISRDNAKNTVYLQMNSLKPEDTSLYYCAALHHTQHDYWGQGTQVTVSS,low polyreactivity
4,QVQLVESGGGLVQAGGSLRLSCAASGRIFLVYAMGWYRQAPGKEREIVASISWSGGSTSYADTVKGLFTISRDNAKNNVSLQMNSLKPEDTAVYYCNAIRRPIFFRGRYYWGQGTQVTVSS,low polyreactivity
5,QVQLVESGGGLVQAGGSLRLSCAASGRIFLWNAMGWYRQAPGKERELVAAISWSGGSTYYADSVKGRFTISRDNAKNTVYLQMNSLKPEDTAVYYCNRLLSLEYGYWGQGTQVTVSS,high polyreactivity
6,QVQLVESGGGLVQAGGSLRLSCAASGRIFLWYAMGWYRQAPGKERELVAAIWRGGSTYYADSVKGRFTISRDNAKNTVYLQMNSLKPEDTAVYYCNAQRAPHWYYLFDYWGQGTQVTVSS,low polyreactivity
7,QVQLVESGGGLVQAGGSLRLSCAASGRIFLYYAMGWYRQAPGKERELVAAISRRGASTYYADSVKGRFTITRDNAKNTVYLQMNSLKPEDTAVYYCGSVPGKSGDYWGQGTQVTVSS,high polyreactivity
8,QVQLVESGGGLVQAGGSLRLSCAASGRIFLYYAMGWYRQAPGKERELVATISSGGSTHYADSVKGRFTISRDNAKNTVYLQMNSMKPEDTAVYYCAAYGYGRGLEPSTTEMDYWGQGTQVTVSS,low polyreactivity
9,QVQLVESGGGLVQAGGSLRLSCAASGRIFMPYAMGWYRQAPGKERELVAAITCTGGSTYYADSVKGRFTISRDNAKNTVYLQMNSPKPEDTAVYYCNARRGYQQHRRDYWGQGTQVTVSS,low polyreactivity
10,QVQLVESGGGLVQAGGSLRLSCAASGRIFNGNAMGWYRQAPGKERELVAAISYSGGATYYADSVKGRFTISRDNAKNTVYLQMNSLKPEDTAVYYCAAAAWDPKGSRYDYWGQGTQVTVSS,low polyreactivity
11,QVQLVESGGGLVQAGGSLRLSCAASGRIFNINAMGWYRQAPGKERELVAAITWRSGSTYYADSVKGRFTISRDNAKNTVYLQMKSLKPEDTAVYYCAADFSQTRRPIRFYYWGQGTQVTVSS,high polyreactivity
12,QVQLVESGGGLVQAGGSLRLSCAASGRIFNLNAMVRYRQAPGKERELVAAISKSGTRTYYADSVKGRFTISRDNAKNTVYLQMYSLKPEDTAVYYCGAEALYYDRLGWVYLRYDYWGQGTQVTVSS,high polyreactivity
13,QVQLVESGGGLVQAGGSLRLSCAASGRIFNLYAMGWYRQAPGKERELVAAISWGGGRTYYADSVKGRFTISRDNAKNTVYLQMNSLKPEDTAVYYCNAVYSPRYYVGGYDYWGQGTQVTVSS,high polyreactivity
14,QVQLVESGGGLVQAGGSLRLSCAASGRIFNLYDMGWYRQAPGKERELVAAITTGGDTTNYADSVKGRFTISRDNAKNTVYLQMNSLKPEDTAVYYCAADDGWIEPVYGYYEHEYWGQGTQVTVSS,low polyreactivity
15,QVQLVESGGGLVQAGGSLRLSCAASGRIFNPYAMGWYRQAPGKERELVAAISRGGRTYYADSVKGRFTISRDNAKNTVYLQMNSLKPEDTAVYYCNAGRGLREDDYWGQGTQVTVSS,low polyreactivity
16,QVQLVESGGGLVQAGGSLRLSCAASGRIFNQYGMGWYRQAPGKERELVASITGSGGTTYYADSVKGRFTISRDNAKNTVYLQMNSLKPEDTAVYYCAAVFYGFVGYYNEDYWGQGTQVTVSS,low polyreactivity
17,QVQLVESGGGLVQAGGSLRLSCAASGRIFNRNAKGWYRQAPGKERELVAAISSDTSTNYADSVKGRFTISRDNAKNTVYLQMNCLKPEDTAVYYCATKYGTSNWYNTYYYWGQGTQVTVSS,low polyreactivity
